# Target: extracellular Cu/Zn superoxide dismutase from Onchocerca volvulus (OvEC-SOD) (Onchocerca volvulus)
# Test: SAXS; monodisperse solutions after affinity-tag cleavage, four concentrations 0.5-7.5 mg/ml; molecular mass from forward scattering with bovine serum albumin as reference; compared with the crystallographic dimer (CRYSOL, SREFLEX, GASBOR)
substance,measurement,value
extracellular Cu/Zn superoxide dismutase from Onchocerca volvulus (OvEC-SOD) (enzyme),stoichiometry N,2

# Source: PMC9158661
